Experimental data from the supplement of paper PMC10126150.
± gives the standard deviation of the averaged measurements.
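Also: ATP exposure 15 min at 22 °C before imaging.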

Each sequence was assayed on ATP (assay: switch fluorescence ratio, 500 uM ATP over buffer (Cy3 cluster intensity, sum of 5 cycles each) (fold (ratio)); higher = stronger signal-on switching upon ATP binding; sequences stand for … in TCGTCGGCAGCGTCAGATGTGTATAAGAGACAGTTTTTTTTTTTTTTTTTTTTTTTTT…TC). Details: aptamer strand: ATP DNA aptamer (quencher-CACCTGGGGGAGTATTGCGGAGGAAGG + anchor), 100 nM annealed; ATP concentration: 500 uM.
How it was run: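 Clusters with intensities outside 100-1000 RFU were excluded. The remaining Cy3-labelled switching-strand clusters on a modified Illumina MiSeq flow-cell had been annealed to 100 nM quencher-labelled ATP aptamer and imaged in selection buffer, then after 15 min with 500 uM ATP at 22 °C, for five cycles separated by NaOH stripping and re-annealing. The fluorescence ratio, averaged per switch-domain sequence, is each cluster's summed target-cycle Cy3 intensity over its summed buffer-cycle Cy3 intensity.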
In the case of GTGTCATGGA, the switch fluorescence ratio is reported as 1 ± 0.029. GGATTAATGT gave a switch fluorescence ratio of 0.971 ± 0.022. Work on CTATGATATT yielded a switch fluorescence ratio of 0.947 ± 0.042. Sequence ACCTAGCGAT has a switch fluorescence ratio of 1.57 ± 0.03. In the case of ATACAATAGA, the switch fluorescence ratio is reported as 1.004 ± 0.0087. Work on GATAATGCGG yielded a switch fluorescence ratio of 1.01 ± 0.025. TATTTAGGGT showed a switch fluorescence ratio of 1.01 ± 0.021. For GCTAGGGTTT, the switch fluorescence ratio was 0.965 ± 0.015. TGGGTGATAA showed a switch fluorescence ratio of 1.04 ± 0.048. For GACGCGGAAC, the switch fluorescence ratio was 5.48 ± 0.37. Work on CCTAATTTGG yielded a switch fluorescence ratio of 0.974 ± 0.031. With TTCCGAAAGA the switch fluorescence ratio was 1.11 ± 0.066. Work on GATTTTTTTC yielded a switch fluorescence ratio of 0.98 ± 0.05. Sequence TCCAATATGG has a switch fluorescence ratio of 1.05 ± 0.094. For GATTGAGGTC, the switch fluorescence ratio was 0.989 ± 0.037. For AGGCAATGTT, the switch fluorescence ratio was 1.05 ± 0.013. GGGGGGCTTC gave a switch fluorescence ratio of 0.975 ± 0.019. For CAACATGGGG, the switch fluorescence ratio was 0.9925 ± 0.0065. TTAAGTTGTG was tested, and the switch fluorescence ratio was 0.9827 ± 0.0013. In the case of AGGTTATGGT, the switch fluorescence ratio is reported as 0.992 ± 0.052. TTCGGGTTTG was tested, and the switch fluorescence ratio was 1 ± 0.034. TACTATTGGA gave a switch fluorescence ratio of 1.01 ± 0.021. CCTGAGGGCG was tested, and the switch fluorescence ratio was 1.037 ± 0.01. Work on AGTCCTTAAG yielded a switch fluorescence ratio of 1 ± 0.025. Work on TTTTAGGACC yielded a switch fluorescence ratio of 1 ± 0.025. TTTCGACGCT showed a switch fluorescence ratio of 2.18 ± 0.85. In the case of GTTTAGTAAG, the switch fluorescence ratio is reported as 1 ± 0.013. Sequence AAGATTAGTG has a switch fluorescence ratio of 0.9828 ± 0.0067. Sequence CAGGGGTGAT has a switch fluorescence ratio of 1.18 ± 0.19. AATGGAAATT was tested, and the switch fluorescence ratio was 0.996 ± 0.063. TCGAGTCATC showed a switch fluorescence ratio of 0.965 ± 0.019. CGAAGTTTCG gave a switch fluorescence ratio of 1.02 ± 0.017. ACTAATGGGC showed a switch fluorescence ratio of 1.03 ± 0.026. CGTGTGGCGA showed a switch fluorescence ratio of 1.06 ± 0.015. Work on GCAAGTTTCA yielded a switch fluorescence ratio of 0.996 ± 0.034. TTCAGAAATT showed a switch fluorescence ratio of 1.01 ± 0.011. Sequence GGTATTTTGG has a switch fluorescence ratio of 0.953 ± 0.035. In the case of TCAAGCGAAC, the switch fluorescence ratio is reported as 1.48 ± 0.061. AACTACAGGC gave a switch fluorescence ratio of 1.18 ± 0.11. With AAATAGGTG the switch fluorescence ratio was 1.12 ± 0.058. TCTGTAGTGG gave a switch fluorescence ratio of 1.03 ± 0.014. In the case of ATCCAGGTTG, the switch fluorescence ratio is reported as 1.68 ± 0.11. GCCAGGGGGG was tested, and the switch fluorescence ratio was 1.01 ± 0.029. AATAGGCACA gave a switch fluorescence ratio of 1.07 ± 0.0015. Sequence GGTTAAGGCC has a switch fluorescence ratio of 1.033 ± 0.007. Sequence GCGTAACCGT has a switch fluorescence ratio of 0.99 ± 0.038. TATAGATAAG was tested, and the switch fluorescence ratio was 1.01 ± 0.015. GTGGGAAGTT was tested, and the switch fluorescence ratio was 0.9926 ± 0.0071. With TAGGGGGGGG the switch fluorescence ratio was 1.02 ± 0.073. CCGAATCGGA showed a switch fluorescence ratio of 1.02 ± 0.054. GGGTTAGGAT gave a switch fluorescence ratio of 0.98 ± 0.029. GCAATATGTA showed a switch fluorescence ratio of 1.62 ± 0.11. With ATTTGGGTAG the switch fluorescence ratio was 1.01 ± 0.062. TAAGGGACGT gave a switch fluorescence ratio of 1.01 ± 0.034. TAGGAACAGC showed a switch fluorescence ratio of 0.98 ± 0.012. Work on CAAACTGTCA yielded a switch fluorescence ratio of 1.07 ± 0.06. Work on ATTGCGTTGG yielded a switch fluorescence ratio of 0.996 ± 0.013. Sequence TGTTATGTCC has a switch fluorescence ratio of 1 ± 0.023. GTTTCAGGTT was tested, and the switch fluorescence ratio was 2.12 ± 1.6. Work on AAATTTGGGG yielded a switch fluorescence ratio of 1 ± 0.038. Work on CGATGGGGGG yielded a switch fluorescence ratio of 0.982 ± 0.06. For TTTTAATTTT, the switch fluorescence ratio was 0.998 ± 0.029. Sequence CGGAGCAGGA has a switch fluorescence ratio of 1.48 ± 0.17. Sequence ATGGGGCGGC has a switch fluorescence ratio of 0.983 ± 0.026. GACGCAGGGT gave a switch fluorescence ratio of 1.34 ± 0.25. For TTTAATCTGG, the switch fluorescence ratio was 0.968 ± 0.021. In the case of AGGGGAATCG, the switch fluorescence ratio is reported as 1.01 ± 0.016. For TACGGGGACA, the switch fluorescence ratio was 1.07 ± 0.055. TGGGATACAG showed a switch fluorescence ratio of 0.982 ± 0.026. Sequence TCAAATATTT has a switch fluorescence ratio of 0.979 ± 0.0025. Work on CTGAATGCAG yielded a switch fluorescence ratio of 1.069 ± 0.0077. With GTGTTATCGT the switch fluorescence ratio was 0.969 ± 0.045. AGGCAGTGTC was tested, and the switch fluorescence ratio was 1.04 ± 0.05. GACTAGGTTT gave a switch fluorescence ratio of 1.04 ± 0.013. TTTGCGG gave a switch fluorescence ratio of 1.009 ± 0.0082. Work on GGTTCTGGGT yielded a switch fluorescence ratio of 1 ± 0.02. With TGAAGGGACG the switch fluorescence ratio was 1.02 ± 0.015. Sequence AAGAGGAAAA has a switch fluorescence ratio of 1 ± 0.024. Sequence TAGTGTCTTT has a switch fluorescence ratio of 0.993 ± 0.014. Work on ATAAAGGGAT yielded a switch fluorescence ratio of 1 ± 0.034. Work on CTTCATGGTC yielded a switch fluorescence ratio of 0.96 ± 0.017. For AGGTGCGGGA, the switch fluorescence ratio was 1.02 ± 0.052. TATGGAGACC gave a switch fluorescence ratio of 0.9917 ± 0.0049. TTTGTGTATG gave a switch fluorescence ratio of 0.9701 ± 0.0032. In the case of CGACGCTTGT, the switch fluorescence ratio is reported as 3.15 ± 0.38. For AAGGGGTTGA, the switch fluorescence ratio was 1.01 ± 0.023. Work on CACGGGTTCC yielded a switch fluorescence ratio of 1.03 ± 0.041. Sequence TTTTATCCCA has a switch fluorescence ratio of 1.004 ± 0.0067. In the case of AGAGATATTT, the switch fluorescence ratio is reported as 0.992 ± 0.029. For TGGGGTTCTG, the switch fluorescence ratio was 0.9832 ± 0.0022. Sequence TGAACGGGGG has a switch fluorescence ratio of 1.02 ± 0.049. Sequence TTATGTGGTG has a switch fluorescence ratio of 0.974 ± 0.014. In the case of CCAGGTGTTA, the switch fluorescence ratio is reported as 2.31 ± 1.8. TGTGGTGTGC showed a switch fluorescence ratio of 1.01 ± 0.022. With TTTATGGAGA the switch fluorescence ratio was 0.998 ± 0.015. Work on ATCGGGGTAA yielded a switch fluorescence ratio of 1.04 ± 0.068. With ATCGTCATGG the switch fluorescence ratio was 1.01 ± 0.012. TATGTCTCCG gave a switch fluorescence ratio of 1.03 ± 0.017. GGGGCCCTTG was tested, and the switch fluorescence ratio was 0.97602 ± 9.7e-05. TTTTATAGCG was tested, and the switch fluorescence ratio was 0.99918 ± 0.00023. For AATTCCTTGG, the switch fluorescence ratio was 0.984 ± 0.034. With AGAAAGGGGG the switch fluorescence ratio was 0.9954 ± 0.0038. For ATTTTGCTAA, the switch fluorescence ratio was 0.996 ± 0.016. AGACGTGCGT was tested, and the switch fluorescence ratio was 1.01 ± 0.048. In the case of ATGTAGAAGG, the switch fluorescence ratio is reported as 1 ± 0.029. For CATGATAGTT, the switch fluorescence ratio was 0.997 ± 0.017. Work on AACATAAAAA yielded a switch fluorescence ratio of 1.26 ± 0.4. For TTTTCATTAA, the switch fluorescence ratio was 0.9932 ± 0.008. For TGGGTAGATA, the switch fluorescence ratio was 0.985 ± 0.045. With TCGGGGCTCT the switch fluorescence ratio was 1.07 ± 0.12. GGAATAAGGG gave a switch fluorescence ratio of 0.995 ± 0.015. AATCCCTGGG gave a switch fluorescence ratio of 1.07 ± 0.033. TTCAGGATTA gave a switch fluorescence ratio of 0.9939 ± 0.0091. With TGCTGGGGGG the switch fluorescence ratio was 0.981 ± 0.023. GGTGGGATTT showed a switch fluorescence ratio of 0.9506 ± 0.0055. ACTCAGACCT showed a switch fluorescence ratio of 1.3 ± 0.067. With ATATATTGGT the switch fluorescence ratio was 0.9922 ± 0.0046. ATACATGTAG was tested, and the switch fluorescence ratio was 0.9845 ± 0.0047. For TTCCTACGAT, the switch fluorescence ratio was 1.42 ± 0.56. GTATTGCTTT gave a switch fluorescence ratio of 0.963 ± 0.012. CGGTTTTGTA showed a switch fluorescence ratio of 0.971 ± 0.028. For TAGGGGGAGT, the switch fluorescence ratio was 0.962 ± 0.059. Sequence TTTTTCCGGG has a switch fluorescence ratio of 1.1 ± 0.11. AACAGGGACC showed a switch fluorescence ratio of 1.04 ± 0.017. Sequence ATTATGTCCA has a switch fluorescence ratio of 0.96991 ± 0.00059. TACTGGGGGA was tested, and the switch fluorescence ratio was 1.07 ± 0.03. AGGGGGGGCT was tested, and the switch fluorescence ratio was 0.985 ± 0.024. TTTTAGTCTT gave a switch fluorescence ratio of 1.04 ± 0.078. Work on GGGGGAGGCA yielded a switch fluorescence ratio of 0.966 ± 0.032. GATTGTTGGA showed a switch fluorescence ratio of 1.02 ± 0.037. In the case of CGGAGGGAGT, the switch fluorescence ratio is reported as 1.78 ± 1.1. Work on ATCTGAGTTG yielded a switch fluorescence ratio of 0.989 ± 0.031. Sequence ACAATCTCTT has a switch fluorescence ratio of 1.02 ± 0.025. In the case of GGGCGGGCGC, the switch fluorescence ratio is reported as 1.06 ± 0.027. GCATGAATCT gave a switch fluorescence ratio of 1.014 ± 0.0084. GATGGTGTAA gave a switch fluorescence ratio of 0.967 ± 0.028. CGTACATGT gave a switch fluorescence ratio of 1.02 ± 0.024. TTATTTTTAG showed a switch fluorescence ratio of 1.01 ± 0.035. Work on TCTTCACGTC yielded a switch fluorescence ratio of 1.003 ± 0.0029. GATTGGAGCA gave a switch fluorescence ratio of 1.02 ± 0.034. In the case of TTTCCAATCT, the switch fluorescence ratio is reported as 1.08 ± 0.13. For ATGTTGCGGG, the switch fluorescence ratio was 1 ± 0.041. GGGGTAATCA gave a switch fluorescence ratio of 0.999 ± 0.018. GCCTTAGTGA showed a switch fluorescence ratio of 0.9959 ± 0.0046. GTTTTTAGGT showed a switch fluorescence ratio of 0.98 ± 0.021. With TTTTGCTGCA the switch fluorescence ratio was 0.978 ± 0.013. Work on ACAGGATACA yielded a switch fluorescence ratio of 1.14 ± 0.078. For TAAACCGGGT, the switch fluorescence ratio was 1.05 ± 0.074. ATCGGTCTGT gave a switch fluorescence ratio of 0.975 ± 0.018. Sequence GGGGTTCCGG has a switch fluorescence ratio of 0.941 ± 0.032. TGTGTATGGC showed a switch fluorescence ratio of 1.12 ± 0.19. GGGGACACAG was tested, and the switch fluorescence ratio was 0.979 ± 0.015. AGGGAGGCAG was tested, and the switch fluorescence ratio was 1 ± 0.033. CAAAGATGG gave a switch fluorescence ratio of 0.947 ± 0.013. Sequence TGATTCTAAT has a switch fluorescence ratio of 1 ± 0.042. With TCTCCGAGTG the switch fluorescence ratio was 1.45 ± 0.17. In the case of TCCCGGTTTT, the switch fluorescence ratio is reported as 1.1 ± 0.11.
